From IntAct's records for PubMed 27478939

B1: Purine nucleoside phosphorylase LACC1 (Homo sapiens), Q8IV20 (parent)
chain: MAEAVLIDLFGLKLNSQKNCHQTLLKTLNAVQYHHAAKAKFLCIMCCSNISYERDGEQDNCEIETSNGLSALLEEFEIVSCPSMAATLYTIKQKIDEKNLSSIKVIVPRHRKTLMKAFIDQLFTDVYNFEFEDLQVTFRGGLFKQSIEINVITAQELRGIQNEIETFLRSLPALRGKLTIITSSLIPDIFIHGFTTRTGGISYIPTLSSFNLFSSSKRRDPKVVVQENLRRLANAAGFNVEKFYRIKTHHSNDIWIMGRKEPDSYDGITTNQRGVTIAALGADCIPIVFADPVKKACGVAHAGWKGTLLGVAMATVNAMIAEYGCSLEDIVVVLGPSVGPCCFTLPRESAEAFHNLHPACVQLFDSPNPCIDIRKATRILLEQGGILPQNIQDQNQDLNLCTSCHPDKFFSHVRDGLNFGTQIGFISIKE

Variants of: B1
Conditions: with fas_human FASN

**Q.** With I254V as the variant, how does the “effect of a mutation on the interaction” value read?
**A.** with no effect
